Measured values: US20220251236A1 (Boehringer Ingelheim, published 2022)

T1: Cyno DLL3-His (cynomolgus monkey, UniProt Q9NYJ7 27-492 (human entry))
T1 construct: also called cy DLL3; recombinant cyno DLL3-ECD
T1 chain: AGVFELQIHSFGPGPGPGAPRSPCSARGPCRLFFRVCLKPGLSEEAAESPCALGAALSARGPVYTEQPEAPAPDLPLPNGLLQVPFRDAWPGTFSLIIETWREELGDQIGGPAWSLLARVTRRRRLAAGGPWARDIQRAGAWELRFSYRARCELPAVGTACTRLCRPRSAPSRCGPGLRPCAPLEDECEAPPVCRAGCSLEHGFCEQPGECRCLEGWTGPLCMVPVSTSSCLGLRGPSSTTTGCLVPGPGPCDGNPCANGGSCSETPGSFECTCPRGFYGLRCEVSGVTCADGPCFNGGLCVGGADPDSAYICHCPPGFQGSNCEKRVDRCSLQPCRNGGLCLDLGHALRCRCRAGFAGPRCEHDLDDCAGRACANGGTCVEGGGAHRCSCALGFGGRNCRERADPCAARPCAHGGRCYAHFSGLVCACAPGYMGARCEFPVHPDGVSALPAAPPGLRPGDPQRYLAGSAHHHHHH

T2: Human DLL3-His (human, UniProt Q9NYJ7 27-492)
T2 construct: also called huDLL3-His; hu DLL3
T2 sequence: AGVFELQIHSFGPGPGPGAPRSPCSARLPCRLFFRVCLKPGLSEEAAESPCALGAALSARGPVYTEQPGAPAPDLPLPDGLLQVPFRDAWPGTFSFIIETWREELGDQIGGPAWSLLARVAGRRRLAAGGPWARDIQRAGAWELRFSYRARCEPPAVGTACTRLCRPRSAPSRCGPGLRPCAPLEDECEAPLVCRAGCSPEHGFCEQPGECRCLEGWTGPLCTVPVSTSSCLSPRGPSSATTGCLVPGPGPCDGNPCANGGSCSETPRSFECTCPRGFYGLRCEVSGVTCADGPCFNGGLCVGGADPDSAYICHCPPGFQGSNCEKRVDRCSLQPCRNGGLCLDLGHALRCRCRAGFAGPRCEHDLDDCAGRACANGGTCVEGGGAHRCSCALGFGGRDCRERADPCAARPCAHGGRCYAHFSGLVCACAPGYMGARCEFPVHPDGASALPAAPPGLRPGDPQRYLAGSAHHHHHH

T3: human DLL3 (endogenous, on SCLC cell lines NCI-H82 and SHP77 and in SCLC tissue) (human, UniProt Q9NYJ7 27-618)
T3 construct: whole, on cells; also called SCLC cell lines expressing DLL3
T3 sequence (looked up): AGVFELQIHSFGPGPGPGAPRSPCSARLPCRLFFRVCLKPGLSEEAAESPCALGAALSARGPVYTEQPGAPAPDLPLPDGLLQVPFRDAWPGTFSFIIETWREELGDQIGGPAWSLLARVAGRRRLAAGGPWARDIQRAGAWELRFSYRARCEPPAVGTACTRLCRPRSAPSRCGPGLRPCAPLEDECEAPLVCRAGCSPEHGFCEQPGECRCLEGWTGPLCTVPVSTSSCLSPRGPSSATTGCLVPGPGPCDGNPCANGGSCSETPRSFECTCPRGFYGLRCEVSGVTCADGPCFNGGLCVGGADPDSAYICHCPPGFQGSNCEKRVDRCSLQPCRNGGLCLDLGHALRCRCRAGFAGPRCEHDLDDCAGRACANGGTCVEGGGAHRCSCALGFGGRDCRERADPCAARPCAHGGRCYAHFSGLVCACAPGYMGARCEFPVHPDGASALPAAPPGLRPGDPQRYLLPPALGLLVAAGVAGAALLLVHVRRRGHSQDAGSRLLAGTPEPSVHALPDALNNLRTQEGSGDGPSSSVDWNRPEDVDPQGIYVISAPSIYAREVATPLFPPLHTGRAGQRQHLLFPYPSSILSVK


Assays:
Cyno DLL3-His = biological target: T1, Cyno DLL3-His; assay: SPR (ProteOn XPR36), bispecific captured on protein A/G, DLL3 as analyte, Example 4A
Protocol: (§1) The binding affinity of purified DLL3/CD3 bispecific constructs for recombinant human and cyno DLL3-ECD and Fc-fusion proteins of human and cyno CD3 εγ subunits was determined by Surface Plasmon Resonance (SPR), using a ProteOn XPR36 instrument (Bio-Rad). The running buffer and all dilutions (except where stated) were done in PBS-T-EDTA. The GLM sensor chip (Bio-Rad) was normalized and pre-conditioned as per the manufacturer's recommendations. The sensor chip was activated with equal mixture of EDC/s-NHS in the horizontal direction for 300 sec at a flow rate of 30 ul/min and immobilized with protein A/G (20 ug/ml in 10 mM acetate pH 4.5) in the horizontal direction for 300 sec at a flowrate of 30 ul/min resulting in ˜5000 RU of protein A/G on the surface. The sensor chip was deactivated with 1M ethanolamine HCl in the horizontal direction for 300 sec at a flowrate of 30 μl/min.
(§2) For binding kinetic determination to DLL3, bispecific molecules were captured individually on the protein A/G surface vertically for 250 sec at a flowrate of 25 μl/min. The baseline was stabilized by injecting PBS-T-EDTA for 60 sec at a flowrate of 40 μl/min horizontally. The analyte (hu DLL3 or cy DLL3) was injected horizontally over the captured antibody for 600 sec at a flowrate of 40 μl/min and a dissociation for 2700 sec.
The inter spot (interactions with sensor surface) and blank (PBS-T-EDTA) were subtracted from the raw data.

Human DLL3-His = biological target: T2, Human DLL3-His; assay: SPR (ProteOn XPR36), bispecific captured on protein A/G, DLL3 as analyte, Example 4A; Table 2A (Example 4A SPR run)
Protocol: as §1
as §2, with “sec. […]” for “sec.”

[1] = biological target: T3, human DLL3 (endogenous, on SCLC cell …); assay: flow cytometry titration on NCI-H82 cells, PE anti-human secondary, x-fold over background
From the text: Cells (T cells or human SCLC cells) were stained with increasing concentrations of two-step purified DLL3/CD3 binding proteins with increasing concentrations in FACS buffer (PBS/0.5% BSA/0.05% sodium azide). Bound molecules were detected with PE-conjugated anti-human secondary antibody (Sigma-Aldrich, #P8047).

Cyno CD3 E+G HuFc-6xHis = biological target: T4, Cyno CD3 E+G HuFc-6xHis (cynomolgus monkey); assay: SPR (ProteOn XPR36), CD3εγ-Fc amine-coupled, bispecific as analyte, equilibrium fit, Example 4A
T4 construct: also called cy CD3εγ-Fc; Recomb; Cyno CD3 εγ
T4 sequence (chain, as listed by the source limits assumed): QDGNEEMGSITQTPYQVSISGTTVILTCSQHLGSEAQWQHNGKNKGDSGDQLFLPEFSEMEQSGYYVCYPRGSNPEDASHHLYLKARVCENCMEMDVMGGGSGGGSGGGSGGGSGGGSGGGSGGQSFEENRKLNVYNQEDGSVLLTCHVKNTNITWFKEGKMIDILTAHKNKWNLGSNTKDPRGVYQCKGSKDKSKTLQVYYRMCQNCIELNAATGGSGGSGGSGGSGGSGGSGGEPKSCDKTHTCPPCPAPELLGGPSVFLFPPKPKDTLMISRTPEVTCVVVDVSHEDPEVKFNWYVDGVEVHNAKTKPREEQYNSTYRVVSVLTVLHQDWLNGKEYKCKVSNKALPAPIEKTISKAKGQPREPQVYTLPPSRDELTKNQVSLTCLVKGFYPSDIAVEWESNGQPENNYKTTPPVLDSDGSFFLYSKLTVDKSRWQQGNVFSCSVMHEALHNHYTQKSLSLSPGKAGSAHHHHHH

Binder	Kd (Cyno DLL3-His) [nM]	Kd (Human DLL3-His) [nM]	EC50 (read off the curve) [1] [nM]	Kd (Cyno CD3 E+G HuFc-6xHis) [nM]
DLL3#3/CD3#1 (bispecific antibody, human IgG1, kappa, lambda, L234A L235A, Heterodimer of one DLL3 chain and one CD3 chain (scFab-Fc, knob-in-hole)) chain 1: DIQMTQSPSAMSASVGDRVTITCRASQGISNYLVWFQQKPGKAPKRLIYAVSSLYSGVPSRFSGSGSGTEFTLTISSLQPEDFATYYCLQHDSYPYTFGQGTKLEIKRTVAAPSVFIFPPSDEQLKSGTASVVCLLNNFYPREAKVQWKVDNALQSGNSQESVTEQDSKDSTYSLSSTLTLSKADYEKHKVYACEVTHQGLSSPVTKSFNRGECGGGGSEGKSSGSGSESKSTEGKSSGSGSESKSTGGGGSQVQLVQSGAEVKKPGASVKVSCKASGYTFTSYYVHWVRQAPGQGLEWMVIINPGGGTTSYAQKFLGRVTMTRDTSTNTVYMELKSLRSEDTAVYYCARGEAVTGNYFYYGMDVWGQGTTVTVSSASTKGPSVFPLAPSSKSTSGGTAALGCLVKDYFPEPVTVSWNSGALTSGVHTFPAVLQSSGLYSLSSVVTVPSSSLGTQTYICNVNHKPSNTKVDKRVEPKSCDKTHTCPPCPAPEAAGGPSVFLFPPKPKDTLMISRTPEVTCVVVDVSHEDPEVKFNWYVDGVEVHNAKTKPREEQYNSTYRVVSVLTVLHQDWLNGKEYKCKVSNKALPAPIEKTISKAKGQPREPQVYTLPPSREEMTKNQVSLWCLVKGFYPSDIAVEWESNGQPENNYKTTPPVLDSDGSFFLYSKLTVDKSRWQQGNVFSCSVMHEALHNHYTQKSLSLSPG chain 2: EAVVTQEPSLTVSPGGTVTLTCRSSTGAVTTSNYANWVQEKPGQLPRGLIGGTNKRAPWVPARFSGSLLGGKAALTLSGAQPEDEAEYFCALWYSNLWVFGGGTKLTVLGQPKAAPSVTLFPPSSEELQANKATLVCLISDFYPGAVKVAWKADGSPVNTGVETTTPSKQSNNKYAASSYLSLTPEQWKSHRSYSCQVTHEGSTVEKTVAPAECSGGGGSEGKSSGSGSESKSTEGKSSGSGSESKSTGGGGSEVQLVESGGGLVQPGGSLKLSCAASGFTFNTYAMNWVRQAPGKGLEWVARIRSKYNNYATYYADSVKDRFTISRDDSKNTAYLQMNNLKTEDTAVYYCVRHGNFGNSYVSWFAYWGQGTLVTVSAASTKGPSVFPLAPSSKSTSGGTAALGCLVKDYFPEPVTVSWNSGALTSGVHTFPAVLQSSGLYSLSSVVTVPSSSLGTQTYICNVNHKPSNTKVDKRVEPKSCDKTHTCPPCPAPEAAGGPSVFLFPPKPKDTLMISRTPEVTCVVVDVSHEDPEVKFNWYVDGVEVHNAKTKPREEQYNSTYRVVSVLTVLHQDWLNGKEYKCKVSNKALPAPIEKTISKAKGQPREPQVYTLPPSREEMTKNQVSLSCAVKGFYPSDIAVEWESNGQPENNYKTTPPVLDSDGSFFLVSKLTVDKSRWQQGNVFSCSVMHEALHNRFTQKSLSLSPG	< 0.01	< 0.01	–	–
DLL3#4/CD3#1 (bispecific antibody, human IgG1, kappa, lambda, L234A L235A, Heterodimer of one DLL3 chain and one CD3 chain (scFab-Fc, knob-in-hole)) chain 1: not shown chain 2: EAVVTQEPSLTVSPGGTVTLTCRSSTGAVTTSNYANWVQEKPGQLPRGLIGGTNKRAPWVPARFSGSLLGGKAALTLSGAQPEDEAEYFCALWYSNLWVFGGGTKLTVLGQPKAAPSVTLFPPSSEELQANKATLVCLISDFYPGAVKVAWKADGSPVNTGVETTTPSKQSNNKYAASSYLSLTPEQWKSHRSYSCQVTHEGSTVEKTVAPAECSGGGGSEGKSSGSGSESKSTEGKSSGSGSESKSTGGGGSEVQLVESGGGLVQPGGSLKLSCAASGFTFNTYAMNWVRQAPGKGLEWVARIRSKYNNYATYYADSVKDRFTISRDDSKNTAYLQMNNLKTEDTAVYYCVRHGNFGNSYVSWFAYWGQGTLVTVSAASTKGPSVFPLAPSSKSTSGGTAALGCLVKDYFPEPVTVSWNSGALTSGVHTFPAVLQSSGLYSLSSVVTVPSSSLGTQTYICNVNHKPSNTKVDKRVEPKSCDKTHTCPPCPAPEAAGGPSVFLFPPKPKDTLMISRTPEVTCVVVDVSHEDPEVKFNWYVDGVEVHNAKTKPREEQYNSTYRVVSVLTVLHQDWLNGKEYKCKVSNKALPAPIEKTISKAKGQPREPQVYTLPPSREEMTKNQVSLSCAVKGFYPSDIAVEWESNGQPENNYKTTPPVLDSDGSFFLVSKLTVDKSRWQQGNVFSCSVMHEALHNRFTQKSLSLSPG	–	–	~0.1	–
DLL3#3/CD3#2 (bispecific antibody, human IgG1, kappa, lambda, L234A L235A, Heterodimer of one DLL3 chain and one CD3 chain (scFab-Fc, knob-in-hole)) chain 1: DIQMTQSPSAMSASVGDRVTITCRASQGISNYLVWFQQKPGKAPKRLIYAVSSLYSGVPSRFSGSGSGTEFTLTISSLQPEDFATYYCLQHDSYPYTFGQGTKLEIKRTVAAPSVFIFPPSDEQLKSGTASVVCLLNNFYPREAKVQWKVDNALQSGNSQESVTEQDSKDSTYSLSSTLTLSKADYEKHKVYACEVTHQGLSSPVTKSFNRGECGGGGSEGKSSGSGSESKSTEGKSSGSGSESKSTGGGGSQVQLVQSGAEVKKPGASVKVSCKASGYTFTSYYVHWVRQAPGQGLEWMVIINPGGGTTSYAQKFLGRVTMTRDTSTNTVYMELKSLRSEDTAVYYCARGEAVTGNYFYYGMDVWGQGTTVTVSSASTKGPSVFPLAPSSKSTSGGTAALGCLVKDYFPEPVTVSWNSGALTSGVHTFPAVLQSSGLYSLSSVVTVPSSSLGTQTYICNVNHKPSNTKVDKRVEPKSCDKTHTCPPCPAPEAAGGPSVFLFPPKPKDTLMISRTPEVTCVVVDVSHEDPEVKFNWYVDGVEVHNAKTKPREEQYNSTYRVVSVLTVLHQDWLNGKEYKCKVSNKALPAPIEKTISKAKGQPREPQVYTLPPSREEMTKNQVSLWCLVKGFYPSDIAVEWESNGQPENNYKTTPPVLDSDGSFFLYSKLTVDKSRWQQGNVFSCSVMHEALHNHYTQKSLSLSPG chain 2: EAVVTQEPSLTVSPGGTVTLTCRSSTGAVTTSNYANWVQEKPGQLPRGLIGGTNKRAPWVPARFSGSLLGGKAALTLSGAQPEDEAEYFCALWYSNLWVFGGGTKLTVLGQPKAAPSVTLFPPSSEELQANKATLVCLISDFYPGAVKVAWKADGSPVNTGVETTTPSKQSNNKYAASSYLSLTPEQWKSHRSYSCQVTHEGSTVEKTVAPAECSGGGGSEGKSSGSGSESKSTEGKSSGSGSESKSTGGGGSEVQLVESGGGLVQPGGSLKLSCAASGFTFNTYAMNWVRQAPGKGLEWVARIRSKYINYATYYADSVKDRFTISRDDSKNTAYLQMNNLKTEDTAVYYCVRHGNFGNSYVSWFAYWGQGTLVTVSAASTKGPSVFPLAPSSKSTSGGTAALGCLVKDYFPEPVTVSWNSGALTSGVHTFPAVLQSSGLYSLSSVVTVPSSSLGTQTYICNVNHKPSNTKVDKRVEPKSCDKTHTCPPCPAPEAAGGPSVFLFPPKPKDTLMISRTPEVTCVVVDVSHEDPEVKFNWYVDGVEVHNAKTKPREEQYNSTYRVVSVLTVLHQDWLNGKEYKCKVSNKALPAPIEKTISKAKGQPREPQVYTLPPSREEMTKNQVSLSCAVKGFYPSDIAVEWESNGQPENNYKTTPPVLDSDGSFFLVSKLTVDKSRWQQGNVFSCSVMHEALHNRFTQKSLSLSPG	< 0.01	–	–	100
